For the data set the following is noted: Rattus norvegicus, pH 7, Fluorescence, Sodium-Potassium phosphate 0.1 M; for denaturant m value / denaturant midpoint (higher = more stable) / unfolding free energy: 15 °C, GdnHCl; for Tm / change of melting temperature, mutant - wild type (higher = more stable): Thermal.

Cytochrome c, somatic P31A, P62898, sequence (P62898 whole entry P31A): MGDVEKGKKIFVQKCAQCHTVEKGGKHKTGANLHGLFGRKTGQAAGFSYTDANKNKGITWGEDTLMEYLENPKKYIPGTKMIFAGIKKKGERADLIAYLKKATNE
Cytochrome c, somatic P31A|Y68F, P62898 P31A Y68F, sequence (P62898 whole entry P31A/Y68F): as the sequence (P62898 whole entry P31A) above, with Y68F counted along it
Cytochrome c, somatic wild type, P62898, sequence (P62898 whole entry): as the sequence (P62898 whole entry P31A) above, with A31P counted along it
Cytochrome c, somatic Y68F, P62898, sequence (P62898 whole entry Y68F): as the sequence (P62898 whole entry P31A) above, with A31P, Y68F counted along it

Broadly, the Tm is the temperature at which the thermal transition is half complete. For the substance Cytochrome c, somatic P31A, P62898, under “structure 1I5T”, the denaturant m value worked out at 0.7 kcal/mol/M, the “denaturant midpoint (higher = more stable)” value (“denaturant midpoint” below) is 5.38 M, the unfolding free energy was 3.76 kcal/mol and the Tm was determined as 51 °C. Further, for the setting “structure 1I5T”, the “change of melting temperature, mutant - wild type (higher = more stable)” value (“change of melting temperature, mutant” for short) is -9 °C.
Take “Cytochrome c, somatic P31A|Y68F, P62898 P31A Y68F”: where the note is “structure 1I5T”, the denaturant m value was 1.16 kcal/mol/M, the “denaturant midpoint” value came to 5.81 M, the unfolding free energy worked out at 6.74 kcal/mol and the Tm is 62 °C. Moreover, the “change of melting temperature, mutant” value (structure 1I5T) amounted to 2 °C.
In the case of Cytochrome c, somatic Y68F, P62898, where the note is “structure 1I5T”, the denaturant m value worked out at 0.86 kcal/mol/M, the “denaturant midpoint” value came out at 8.33 M, the unfolding free energy amounted to 7.19 kcal/mol and the Tm turned out to be 90 °C. In addition, under “structure 1I5T”, the “change of melting temperature, mutant” value came to 30 °C.
Take Cytochrome c, somatic wild type, P62898: the denaturant m value is 1.21 kcal/mol/M, the “denaturant midpoint” value worked out at 7.6 M, the unfolding free energy is 9.15 kcal/mol and the Tm amounted to 60 °C.
